The source of these data is PMC5231405 (eLife, 2016).

In assay [1] the target is T1, DesKCSTAB:DesR-REC complex (phosphatase complex) (Bacillus subtilis, UniProt O34757, S150I/S153L/R157I).
T1 construct: gene desK; DesK cytoplasmic portion with DesR receiver domain; His-tag and TEV site on each, co-expressed in E. coli BL21(DE3); 2:2 complex; with Transcriptional regulatory protein DesR
The experiment in a line: X-ray crystallography. The conditions noted are these: Mg2+, BeF3-; pH 8.5; CA (ATP-binding) domain; 2.79 A.

In a further assay the target is CheY (Escherichia coli) (UniProt P0AE67). Particulars: cited from earlier work.
Assay [2] deals with T2, DesKC_(H188V), mutant of the cytoplasmic portion of DesK trapped in the phosphatase state (B. subtilis, UniProt O34757 154-370, H188V).
T2 construct: DesK, histidine kinase of Bacillus subtilis; cytoplasmic portion (DesKC); also called DesK_(H188V)
T2 sequence: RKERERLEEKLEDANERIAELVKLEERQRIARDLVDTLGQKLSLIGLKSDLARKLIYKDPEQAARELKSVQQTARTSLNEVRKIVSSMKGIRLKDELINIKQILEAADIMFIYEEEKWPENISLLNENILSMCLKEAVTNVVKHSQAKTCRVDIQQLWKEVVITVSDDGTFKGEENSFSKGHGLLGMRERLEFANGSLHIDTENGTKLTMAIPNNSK
As to the kind of experiment: ITC; VP-ITC; DesR-REC (350-400 µM) injected into the cell with DesKC variants (25-30 µM); 15°C; 20 mM Tris.HCl pH 8, 0.3 M NaCl, 10 mM MgCl2, 0.5 mM AMP-PNP; duplicate; fitted to a two independent sequential site model. The conditions noted are these: both partners purified. On the technique in general: ITC needs no label: the signal is the heat of the interaction.

For assay [3], the target named is T3, DesKC_(H188E), free protein used in ITC (B. subtilis, UniProt O34757 154-370, H188E).
T3 construct: DesK, histidine kinase of Bacillus subtilis; cytoplasmic portion (DesKC); Kept apart from m2 because it stood alone in the calorimeter cell, whereas m2 was co-expressed and purified with DesR-REC; It may be the same polypeptide as m2
T3 sequence: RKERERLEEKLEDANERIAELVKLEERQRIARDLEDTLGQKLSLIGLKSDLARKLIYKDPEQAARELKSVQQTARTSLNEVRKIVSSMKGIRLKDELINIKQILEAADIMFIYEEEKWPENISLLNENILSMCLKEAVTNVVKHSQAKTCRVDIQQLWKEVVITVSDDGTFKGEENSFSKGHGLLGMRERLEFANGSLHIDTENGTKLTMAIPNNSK
The assay is described as above. Particulars: both partners purified.

Assay [4] has as its target DesKC_(STAB), phosphatase-constitutive mutant of the cytoplasmic portion of the histidine kinase DesK (B. subtilis). As to the kind of experiment: SEC-SAXS; purified DesK-DesR complexes at 10 mg/mL in 50 mM Tris.HCl pH 8.0, 300 mM NaCl, Superdex 75 5/150 GL, beamline SWING; theoretical curves of crystal models fitted with CRYSOL, mixtures with OLIGOMER
A general note: SEC sorts molecules by how far they enter the pores of the column.

Assay [5] addresses T2, DesKC_(H188V), mutant of the …. The experiment in a line: ITC; VP-ITC; DesR-REC (350-400 µM) injected into the cell with DesKC variants (25-30 µM); 15°C; 20 mM Tris.HCl pH 8, 0.3 M NaCl, 10 mM MgCl2, 0.5 mM AMP-PNP; duplicate; fitted to a two independent sequential site model. Also on record: unit not given here. The conditions noted are these: both partners purified.
In assay [6] the target is T3, DesKC_(H188E), free protein used in ITC. The description is as above. On the set-up: unit not given here. Particulars: both partners purified.

Chain of CheY (Escherichia coli) (P0AE67 2-129): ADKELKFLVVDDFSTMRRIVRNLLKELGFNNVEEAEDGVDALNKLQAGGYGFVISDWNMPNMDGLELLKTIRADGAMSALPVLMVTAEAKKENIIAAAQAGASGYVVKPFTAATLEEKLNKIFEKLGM
T1 sequence (O34757 150-370 S150I/S153L/R157I, one chain of several): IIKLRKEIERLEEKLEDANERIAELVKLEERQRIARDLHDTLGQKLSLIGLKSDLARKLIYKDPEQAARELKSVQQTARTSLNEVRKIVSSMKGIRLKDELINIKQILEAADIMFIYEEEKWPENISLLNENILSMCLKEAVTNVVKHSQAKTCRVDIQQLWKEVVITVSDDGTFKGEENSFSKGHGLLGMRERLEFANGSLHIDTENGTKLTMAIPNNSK

For the molecule `Nc1ncnc2c1ncn2[C@@H]1O[C@H](COP(=O)(O)OP(=O)(O)CP(=O)(O)O)[C@@H](O)[C@H]1O` [AMP-PCP], in assay [1], the X-ray crystallography entry is listed as “one AMP-PCP (ATP analogue) moiety is bound to each CA domain”.
For orientation: Kd means the free concentration of one partner at which half of the binding sites on the other are occupied at equilibrium, for simple one-to-one binding. Consider CheA (from UniProt P07363), for which, in the assay with CheY (Escherichia coli), the Kd was 30 nM.

B1: DesR-REC, free protein used as ligand in ITC (domain or fragment, B. subtilis)
chain: MISIFIAEDQQMLLGALGSLLNLEDDMEVVGKGTTGQDAVDFVKKRQPDVCIMDIEMPGKTGLEAAEELKDTGCKIIILTTFARPGYFQRAIKAGVKGYLLKDSPSEELANAIRSVMNGKRIYAPELMEDLYSEA
notes: DesR, response regulator of Bacillus subtilis, REC domain; Probably from pQE80-DesR-REC in E. coli TOP10F', the plasmid and host that the methods name for functional assays (Trajtenberg et al., 2014)
What is called stoichiometry N is a count of units in the complex or per binding partner. In the case of B1, the “stoichiometry N” value was 2 RR monomers per HK dimer in assay [2] and 1 RR monomers per HK dimer in assay [3]. Moreover, the stoichiometry N (RR monomers per HK dimer) in assay [4] amounted to 2. In addition, the “dH, first printed row (two sequential sites fit)” value turned out to be 15000 in assay [5] and 22000 in assay [6]. For the same molecule, the “dH, second printed row (two sequential sites fit)” value was 14000 in assay [5] and 21000 in assay [6].
